Tested on: M. lysodeikticus
Assay: Lysozyme activity after aerosolization from ethanol (standard assay against dried cells of M. lysodeikticus)
Type: biochemical
Procedure: […] The reservoir containing the ethanol solution was connected via a plastic tube to a collecting test tube placed in an ice booth to facilitate condensation of the solution. The nebulization was started and continued for 5 minutes. As a result, about one mL of the ethanol solution was collected in the test tube (i.e. was aerosolized). No solution was collected with the nebulizer switched off. The lysozyme activity of the nebulized solution was measured using the standard assay against dried calls of M. lysodeikticus. (Shugar, Biochim. Biophys. Acta 8, 302 (1952)).

lysozyme: hen egg-white lysozyme (a model protein)
specific activity of the nebulized solution relative to the initial enzyme solution (0.1 mg/ml solution in ethanol, compressor nebulizer, 5 minutes): the same, (±10%) as that of the initial enzyme solution | loss of enzymatic activity upon aerosolization (dispersion in ethanol at 1 mg/ml): no appreciable loss of enzymatic activity | loss of enzymatic activity upon aerosolization (dispersion in ethanol at 10 mg/ml): no appreciable loss of enzymatic activity

Reference: patent US6660715B2, “Nonaqueous solutions and suspensions of macromolecules for pulmonary delivery” (Massachusetts Institute of Technology, priority 1998, dated 2003)
